In article PMC2213610:

Molecular target: VASP, endogenous in human endothelial cells (human (endogenous in EA.hy926 and ECV304)) (UniProt P50552)
Assay: co-IP

VASP, endogenous in human endothelial cells (human (endogenous in EA.hy926 and ECV304)), sequence (P50552 whole entry): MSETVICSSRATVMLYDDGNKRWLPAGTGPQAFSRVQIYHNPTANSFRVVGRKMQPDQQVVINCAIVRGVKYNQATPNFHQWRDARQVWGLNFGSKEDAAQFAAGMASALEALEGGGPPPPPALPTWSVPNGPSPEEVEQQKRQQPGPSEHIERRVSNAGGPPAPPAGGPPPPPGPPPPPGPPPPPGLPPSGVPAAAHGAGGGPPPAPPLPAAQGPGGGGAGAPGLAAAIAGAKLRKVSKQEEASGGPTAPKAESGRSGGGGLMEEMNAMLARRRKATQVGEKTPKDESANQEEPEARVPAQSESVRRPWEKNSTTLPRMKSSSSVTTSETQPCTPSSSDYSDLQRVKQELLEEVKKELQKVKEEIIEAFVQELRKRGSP

Substance “αII-spectrin (SPCN), endogenous in human endothelial cells, Q13813 1-2472” has a percent of cellular SPCN coprecipitated of over 70%.
